We go through 3 molecules from patent publication US20140072613A1, “Compositions and Methods for Treating Cutaneous Scarring” (priority 2012, published 2014).

As usually defined, the % inhibition is how much of the control response was suppressed.

The target in one assay is PKCβI(h) (human), P05771. Kind of assay: cell-based or functional assay.
For assay [1], the target named is Abl(H8396P)(h) (human), P00519. Kind of assay: cell-based or functional assay.
Assay [2] addresses CaMKIδ(h) (human), Q8IU85. Kind of assay: cell-based or functional assay.
The target in a further assay is CK1δ(h) (human), P48730. Kind of assay: cell-based or functional assay.
CK1δ(h) (human), P48730, sequence (P48730 1-294, stated change not applied): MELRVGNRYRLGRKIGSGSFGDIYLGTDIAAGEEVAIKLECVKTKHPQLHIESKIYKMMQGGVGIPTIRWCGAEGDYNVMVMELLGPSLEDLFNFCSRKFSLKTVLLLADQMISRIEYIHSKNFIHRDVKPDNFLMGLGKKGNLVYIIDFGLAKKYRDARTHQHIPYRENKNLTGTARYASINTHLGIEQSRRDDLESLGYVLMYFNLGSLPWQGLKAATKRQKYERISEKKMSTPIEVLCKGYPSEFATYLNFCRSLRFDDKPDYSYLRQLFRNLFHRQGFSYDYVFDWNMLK
In assay [3] the target is CaMKIIδ(h) (human), Q13557. Kind of assay: cell-based or functional assay.
CaMKIIδ(h) (human), Q13557, sequence (Q13557 whole entry, stated change not applied): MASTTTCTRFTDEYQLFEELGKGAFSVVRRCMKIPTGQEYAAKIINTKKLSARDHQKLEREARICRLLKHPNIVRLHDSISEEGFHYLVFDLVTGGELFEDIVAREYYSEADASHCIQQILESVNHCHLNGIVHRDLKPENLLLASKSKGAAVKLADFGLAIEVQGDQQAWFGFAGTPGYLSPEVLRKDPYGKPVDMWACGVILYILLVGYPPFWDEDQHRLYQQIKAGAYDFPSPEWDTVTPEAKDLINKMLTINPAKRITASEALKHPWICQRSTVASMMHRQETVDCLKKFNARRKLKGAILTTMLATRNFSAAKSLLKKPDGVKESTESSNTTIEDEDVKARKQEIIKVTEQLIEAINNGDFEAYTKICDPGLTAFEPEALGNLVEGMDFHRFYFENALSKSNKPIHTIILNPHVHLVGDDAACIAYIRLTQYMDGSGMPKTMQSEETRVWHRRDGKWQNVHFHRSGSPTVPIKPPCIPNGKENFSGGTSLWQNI
The target of a further assay is PKG1α(h) (human), Q13976. Kind of assay: cell-based or functional assay.
PKG1α(h) (human), Q13976, sequence (Q13976 whole entry): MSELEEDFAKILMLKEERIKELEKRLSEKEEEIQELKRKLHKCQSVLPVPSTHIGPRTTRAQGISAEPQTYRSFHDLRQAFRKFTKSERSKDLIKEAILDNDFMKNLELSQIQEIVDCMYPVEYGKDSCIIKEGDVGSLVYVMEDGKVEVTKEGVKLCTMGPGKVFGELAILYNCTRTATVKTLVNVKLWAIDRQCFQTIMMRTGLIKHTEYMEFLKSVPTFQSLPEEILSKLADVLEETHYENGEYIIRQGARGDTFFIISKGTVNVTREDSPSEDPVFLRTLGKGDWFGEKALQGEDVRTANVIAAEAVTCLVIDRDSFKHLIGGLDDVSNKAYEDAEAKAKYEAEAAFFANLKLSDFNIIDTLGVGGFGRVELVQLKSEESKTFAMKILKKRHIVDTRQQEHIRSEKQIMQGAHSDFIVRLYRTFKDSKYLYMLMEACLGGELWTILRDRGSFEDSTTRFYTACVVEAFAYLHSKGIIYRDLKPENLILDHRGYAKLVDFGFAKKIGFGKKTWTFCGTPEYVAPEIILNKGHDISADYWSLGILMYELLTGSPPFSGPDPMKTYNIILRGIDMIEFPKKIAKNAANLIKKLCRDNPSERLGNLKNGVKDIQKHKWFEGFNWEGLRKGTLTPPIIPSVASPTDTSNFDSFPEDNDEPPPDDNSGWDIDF
Assay [4] concerns the target T1, Neurokinin 2 (off-target receptor) (Homo sapiens (Human)), P21452.
T1 chain: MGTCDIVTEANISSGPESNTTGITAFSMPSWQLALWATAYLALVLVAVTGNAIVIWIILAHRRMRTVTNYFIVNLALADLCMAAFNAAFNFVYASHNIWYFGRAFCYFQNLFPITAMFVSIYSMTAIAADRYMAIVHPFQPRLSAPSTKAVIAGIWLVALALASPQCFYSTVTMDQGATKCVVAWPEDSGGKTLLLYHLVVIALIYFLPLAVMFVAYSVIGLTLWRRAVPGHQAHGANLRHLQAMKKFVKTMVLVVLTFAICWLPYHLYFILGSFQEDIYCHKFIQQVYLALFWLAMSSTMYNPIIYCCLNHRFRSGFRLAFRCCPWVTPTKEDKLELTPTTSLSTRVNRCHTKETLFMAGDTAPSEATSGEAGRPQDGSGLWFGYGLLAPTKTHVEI
Kind of assay: Cerep binding assay, competition with a radiolabelled ligand.

Assay [5] deals with Neuropeptide Y (off-target receptor). The assay is described as above.
Assay [6] addresses Serotonin 2A (off-target receptor) (Homo sapiens (Human)), P28223. The assay is described as above.
For assay [7], the target named is Vasoactive intestinal peptide (off-target receptor). The assay is described as above.
Assay [8] concerns the target Small conductance calcium activated K+ channel. The assay is described as above.
Assay [9] concerns the target Bombesin (off-target receptor). Described as above.
Assay [10] has as its target Angiotensin 2 (off-target receptor). Described as above.
The target of assay [11] is Melanocortin 4 (off-target receptor) (Homo sapiens (Human)), P32245. The description is as above.
A further assay has as its target T2, DRAK1(h) (human), Q9UEE5.
T2 chain: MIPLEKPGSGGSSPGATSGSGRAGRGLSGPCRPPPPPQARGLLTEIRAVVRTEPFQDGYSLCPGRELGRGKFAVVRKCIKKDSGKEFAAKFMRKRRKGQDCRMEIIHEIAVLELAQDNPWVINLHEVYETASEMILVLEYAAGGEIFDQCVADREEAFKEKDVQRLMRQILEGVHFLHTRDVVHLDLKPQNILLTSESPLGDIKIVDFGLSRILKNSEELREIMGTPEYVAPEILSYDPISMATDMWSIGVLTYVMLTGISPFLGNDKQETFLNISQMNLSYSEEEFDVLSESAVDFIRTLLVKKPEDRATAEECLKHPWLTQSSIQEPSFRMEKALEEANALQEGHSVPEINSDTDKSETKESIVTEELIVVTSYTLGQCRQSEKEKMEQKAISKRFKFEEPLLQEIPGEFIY
Kind of assay: cell-based or functional assay.

For assay [12], the target named is MAPKAP-K3(h) (human), Q16644. Briefly: cell-based or functional assay.
The target of the next assay is LOK(h) (human), O94804. Briefly: cell-based or functional assay.
The target in the next assay is T3, EphA2(h) (human), P29317.
T3 chain: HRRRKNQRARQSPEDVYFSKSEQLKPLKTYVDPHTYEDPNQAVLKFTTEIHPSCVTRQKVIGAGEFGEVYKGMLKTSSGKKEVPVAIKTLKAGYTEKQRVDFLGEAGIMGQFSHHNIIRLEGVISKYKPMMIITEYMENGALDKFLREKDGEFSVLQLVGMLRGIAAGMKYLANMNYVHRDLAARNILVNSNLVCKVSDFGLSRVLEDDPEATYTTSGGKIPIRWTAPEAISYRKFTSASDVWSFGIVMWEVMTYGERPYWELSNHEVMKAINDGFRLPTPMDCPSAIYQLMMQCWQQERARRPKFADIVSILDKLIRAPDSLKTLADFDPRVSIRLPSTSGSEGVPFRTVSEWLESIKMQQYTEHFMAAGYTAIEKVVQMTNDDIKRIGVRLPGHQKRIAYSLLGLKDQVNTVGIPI
Kind of assay: cell-based or functional assay.

The target in assay [13] is MAPKAP-K2(h) (human), P49137. Briefly: cell-based or functional assay.
MAPKAP-K2(h) (human), P49137, sequence (P49137 46-400 limits assumed): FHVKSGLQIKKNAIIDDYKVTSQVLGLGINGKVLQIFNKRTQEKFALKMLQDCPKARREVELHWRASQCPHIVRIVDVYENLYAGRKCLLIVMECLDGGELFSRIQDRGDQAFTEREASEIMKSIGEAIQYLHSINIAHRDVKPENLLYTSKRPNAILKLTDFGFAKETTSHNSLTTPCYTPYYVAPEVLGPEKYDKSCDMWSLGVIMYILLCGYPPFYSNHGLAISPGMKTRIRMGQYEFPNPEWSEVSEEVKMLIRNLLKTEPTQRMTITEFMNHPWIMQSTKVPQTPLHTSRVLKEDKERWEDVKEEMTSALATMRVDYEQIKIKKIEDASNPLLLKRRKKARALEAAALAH
The target of a further assay is Yes(h) (human), P07947. Kind of assay: cell-based or functional assay.
In a further assay the target is Pim-1(h) (human), P11309. Briefly: cell-based or functional assay.
The next assay deals with Fgr(h) (human), P09769. Kind of assay: cell-based or functional assay.
The target in another assay is CaMKI(h) (human), Q14012. Kind of assay: cell-based or functional assay.
CaMKI(h) (human), Q14012, sequence (Q14012 whole entry): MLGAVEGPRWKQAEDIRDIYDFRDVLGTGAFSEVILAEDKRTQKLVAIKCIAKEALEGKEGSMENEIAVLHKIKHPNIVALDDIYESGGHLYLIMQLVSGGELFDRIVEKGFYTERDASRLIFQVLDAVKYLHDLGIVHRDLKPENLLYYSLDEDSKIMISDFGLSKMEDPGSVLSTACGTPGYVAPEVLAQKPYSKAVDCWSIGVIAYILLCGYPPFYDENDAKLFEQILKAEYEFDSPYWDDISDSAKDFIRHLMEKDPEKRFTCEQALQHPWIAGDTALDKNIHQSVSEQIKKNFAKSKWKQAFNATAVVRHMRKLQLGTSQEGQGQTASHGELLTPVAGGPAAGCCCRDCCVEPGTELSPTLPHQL
A further assay has as its target Fes(h) (human), P07332. Briefly: cell-based or functional assay.
The target in a further assay is MSK1(h) (human), O75582. Briefly: cell-based or functional assay.
Assay [14] concerns the target EGFR(L861Q)(h) (human), P00533. Briefly: cell-based or functional assay.
The next assay addresses T4, FGFR2(h) (human), P21802.
T4 chain: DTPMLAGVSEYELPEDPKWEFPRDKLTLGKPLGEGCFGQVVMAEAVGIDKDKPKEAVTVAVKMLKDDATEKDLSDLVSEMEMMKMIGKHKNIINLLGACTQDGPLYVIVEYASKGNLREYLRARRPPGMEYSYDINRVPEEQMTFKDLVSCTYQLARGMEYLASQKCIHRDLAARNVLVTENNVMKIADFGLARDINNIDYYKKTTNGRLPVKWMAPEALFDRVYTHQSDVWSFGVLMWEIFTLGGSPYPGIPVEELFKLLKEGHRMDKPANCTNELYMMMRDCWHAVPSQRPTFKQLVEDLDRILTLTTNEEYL
Kind of assay: cell-based or functional assay.

Another assay has as its target TrkB(h) (human), Q16620. Kind of assay: cell-based or functional assay.
A further assay addresses T5, DMPK(h) (human), Q09013.
T5 chain: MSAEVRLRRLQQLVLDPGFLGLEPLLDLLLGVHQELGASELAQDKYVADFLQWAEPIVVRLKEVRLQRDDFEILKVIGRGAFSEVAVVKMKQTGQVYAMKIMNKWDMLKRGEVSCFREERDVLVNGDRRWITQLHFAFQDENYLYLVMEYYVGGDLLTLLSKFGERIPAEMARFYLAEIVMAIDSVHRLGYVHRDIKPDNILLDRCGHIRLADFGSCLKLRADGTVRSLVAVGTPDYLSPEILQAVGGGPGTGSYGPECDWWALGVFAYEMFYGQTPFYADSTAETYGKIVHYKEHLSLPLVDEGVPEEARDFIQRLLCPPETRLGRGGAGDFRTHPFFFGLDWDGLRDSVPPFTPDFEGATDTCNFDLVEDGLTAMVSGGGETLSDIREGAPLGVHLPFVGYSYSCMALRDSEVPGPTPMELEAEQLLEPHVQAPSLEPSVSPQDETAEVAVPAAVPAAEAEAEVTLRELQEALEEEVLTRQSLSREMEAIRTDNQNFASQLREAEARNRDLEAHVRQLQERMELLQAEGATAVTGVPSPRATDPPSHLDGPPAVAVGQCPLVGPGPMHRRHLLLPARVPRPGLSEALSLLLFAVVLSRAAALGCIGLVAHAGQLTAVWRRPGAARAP
Kind of assay: cell-based or functional assay.

CaMKIδ(h) (human), Q8IU85, sequence (Q8IU85 whole entry, stated change not applied): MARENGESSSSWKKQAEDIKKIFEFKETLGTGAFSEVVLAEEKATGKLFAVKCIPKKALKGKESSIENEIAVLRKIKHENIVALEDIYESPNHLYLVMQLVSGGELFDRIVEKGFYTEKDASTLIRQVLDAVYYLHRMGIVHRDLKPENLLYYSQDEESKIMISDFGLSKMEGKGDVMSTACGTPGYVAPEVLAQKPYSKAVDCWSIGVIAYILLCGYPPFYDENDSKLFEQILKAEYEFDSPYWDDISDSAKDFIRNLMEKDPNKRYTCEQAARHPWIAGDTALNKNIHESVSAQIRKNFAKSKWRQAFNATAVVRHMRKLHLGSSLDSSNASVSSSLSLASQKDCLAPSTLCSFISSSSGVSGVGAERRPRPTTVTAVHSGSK
PKCβI(h) (human), P05771, sequence (P05771 whole entry): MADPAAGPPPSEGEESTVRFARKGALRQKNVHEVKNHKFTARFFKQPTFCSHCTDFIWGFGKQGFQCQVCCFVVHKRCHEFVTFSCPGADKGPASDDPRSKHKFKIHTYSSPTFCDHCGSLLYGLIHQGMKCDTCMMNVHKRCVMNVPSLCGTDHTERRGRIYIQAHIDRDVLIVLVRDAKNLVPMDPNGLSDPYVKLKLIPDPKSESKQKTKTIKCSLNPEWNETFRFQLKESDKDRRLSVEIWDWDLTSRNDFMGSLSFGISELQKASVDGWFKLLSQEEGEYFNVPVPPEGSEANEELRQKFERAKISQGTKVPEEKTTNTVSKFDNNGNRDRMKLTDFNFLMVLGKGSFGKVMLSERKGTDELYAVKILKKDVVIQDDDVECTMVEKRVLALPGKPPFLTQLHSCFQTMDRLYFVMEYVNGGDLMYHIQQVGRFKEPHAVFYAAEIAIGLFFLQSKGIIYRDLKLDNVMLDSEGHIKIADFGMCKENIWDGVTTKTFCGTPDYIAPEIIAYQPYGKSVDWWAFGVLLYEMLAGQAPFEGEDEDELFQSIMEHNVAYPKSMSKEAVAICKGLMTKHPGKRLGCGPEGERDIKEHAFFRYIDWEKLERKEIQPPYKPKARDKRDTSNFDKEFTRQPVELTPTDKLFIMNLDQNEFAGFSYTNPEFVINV
Abl(H8396P)(h) (human), P00519, sequence (P00519 27-1130, stated change not applied): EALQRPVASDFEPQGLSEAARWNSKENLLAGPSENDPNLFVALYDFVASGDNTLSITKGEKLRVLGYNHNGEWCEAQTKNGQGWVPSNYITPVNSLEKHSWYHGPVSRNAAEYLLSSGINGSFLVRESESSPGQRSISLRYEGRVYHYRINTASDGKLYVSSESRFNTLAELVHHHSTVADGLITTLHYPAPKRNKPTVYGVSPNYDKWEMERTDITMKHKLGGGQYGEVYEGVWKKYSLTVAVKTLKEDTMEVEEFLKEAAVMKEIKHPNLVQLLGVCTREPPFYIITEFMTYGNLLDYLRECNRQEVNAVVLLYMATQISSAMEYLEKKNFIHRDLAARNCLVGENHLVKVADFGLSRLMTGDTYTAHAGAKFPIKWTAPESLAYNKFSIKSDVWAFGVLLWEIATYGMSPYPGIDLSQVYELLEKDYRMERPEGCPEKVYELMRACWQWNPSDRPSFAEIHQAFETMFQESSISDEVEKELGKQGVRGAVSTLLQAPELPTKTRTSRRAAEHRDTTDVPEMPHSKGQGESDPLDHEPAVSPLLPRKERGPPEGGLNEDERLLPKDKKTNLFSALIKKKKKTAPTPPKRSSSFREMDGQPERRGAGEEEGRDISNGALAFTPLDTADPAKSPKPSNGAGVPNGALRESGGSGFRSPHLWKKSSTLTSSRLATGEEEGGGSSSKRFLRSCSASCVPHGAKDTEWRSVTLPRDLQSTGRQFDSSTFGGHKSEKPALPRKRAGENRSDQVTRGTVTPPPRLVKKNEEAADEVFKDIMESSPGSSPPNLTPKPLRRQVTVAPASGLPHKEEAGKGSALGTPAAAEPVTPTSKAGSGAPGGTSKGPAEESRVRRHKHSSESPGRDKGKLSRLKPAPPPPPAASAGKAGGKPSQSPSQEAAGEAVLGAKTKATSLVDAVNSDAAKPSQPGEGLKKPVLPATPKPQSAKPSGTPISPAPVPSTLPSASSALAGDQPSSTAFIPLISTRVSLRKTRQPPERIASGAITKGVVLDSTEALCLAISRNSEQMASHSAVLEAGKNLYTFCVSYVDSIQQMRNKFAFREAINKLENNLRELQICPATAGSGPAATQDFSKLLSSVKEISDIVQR
TrkB(h) (human), Q16620, sequence (Q16620 455-822 limits assumed): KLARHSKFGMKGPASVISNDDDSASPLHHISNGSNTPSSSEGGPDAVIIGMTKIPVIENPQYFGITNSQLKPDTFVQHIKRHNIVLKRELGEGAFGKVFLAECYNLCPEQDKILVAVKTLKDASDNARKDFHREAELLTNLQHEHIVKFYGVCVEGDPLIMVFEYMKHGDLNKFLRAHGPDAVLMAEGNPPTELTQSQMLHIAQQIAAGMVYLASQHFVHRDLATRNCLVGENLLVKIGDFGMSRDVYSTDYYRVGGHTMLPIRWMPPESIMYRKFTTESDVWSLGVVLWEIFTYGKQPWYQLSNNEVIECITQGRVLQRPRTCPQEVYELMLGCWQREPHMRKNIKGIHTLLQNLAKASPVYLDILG

As for FAKLAARLYRKALARQLGVAA [MMI-0300], the % activity, 100 µM with PKCβI(h) (human), P05771 was 78%; in [1] it was 101%; in assay [2], 10%; in the assay with CK1δ(h) (human), P48730 it was 92%; in assay [3] it was 1%; with PKG1α(h) (human), Q13976, 64%.

Take YARAAARQARAKALARQLGVAA (modifications not checked) [MMI-0100]: the % inhibition in [4], in assay [5], in [6], in [7], in assay [8] and in assay [9] was under 30% throughout. Moreover, the % inhibition in assay [10] and in assay [11] was under 30% each time. In addition, the IC50 (kinase activity) in the assay with DRAK1(h) (human), Q9UEE5 was 78.3 µM; in assay [2] it was 45.8 µM; in assay [12], 15.8 µM; with LOK(h) (human), O94804, 47.6 µM; with EphA2(h) (human), P29317, 181 µM; in [13] it was 12.1 µM. For the same molecule, the IC50 (kinase activity) turned out to be 114 µM with Yes(h) (human), P07947; 71.7 µM with Pim-1(h) (human), P11309; 141 µM with Fgr(h) (human), P09769; 11.7 µM with CaMKI(h) (human), Q14012; 174 µM with Fes(h) (human), P07332; 102 µM with MSK1(h) (human), O75582. Besides, the IC50 (kinase activity) worked out at 128 µM in assay [14]; 172 µM with FGFR2(h) (human), P21802; 4.6 µM in the assay with TrkB(h) (human), Q16620; 34.1 µM with DMPK(h) (human), Q09013.

For KAFAKLAARLYRKALARQLGVAA [MMI-0400], the % activity, 100 µM is 78% in the assay with PKCβI(h) (human), P05771; 105% in assay [1]; 17% in [2]; 93% with CK1δ(h) (human), P48730; 2% in assay [3]; 58% in the assay with PKG1α(h) (human), Q13976.
